Substitutions are numbered along the chain they refer to. Names and notes keep the numbering of the source.
T1: S. cerevisiae Vps4p (wild type) (S. cerevisiae, UniProt P52917 1-437)
T1 sequence (looked up): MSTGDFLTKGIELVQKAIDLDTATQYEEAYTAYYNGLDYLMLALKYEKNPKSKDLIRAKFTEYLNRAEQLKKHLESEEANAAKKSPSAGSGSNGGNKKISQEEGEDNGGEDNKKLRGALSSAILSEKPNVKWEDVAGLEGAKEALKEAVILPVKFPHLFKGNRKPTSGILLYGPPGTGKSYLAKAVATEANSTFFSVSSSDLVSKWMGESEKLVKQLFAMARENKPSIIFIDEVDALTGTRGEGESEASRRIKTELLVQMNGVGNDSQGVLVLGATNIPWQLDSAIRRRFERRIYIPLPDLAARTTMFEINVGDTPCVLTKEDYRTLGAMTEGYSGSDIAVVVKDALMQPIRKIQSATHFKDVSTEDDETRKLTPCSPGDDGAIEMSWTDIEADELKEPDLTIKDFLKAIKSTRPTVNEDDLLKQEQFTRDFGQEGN

B1: SsoVps4(85-372, E206Q) (domain or fragment, Sulfolobus solfataricus, UniProt Q97ZJ7 85-372, looked up)
chain: NTSPPEEVVITEKPKVSFKDIVGLDDVKEALREAIIYPTKRPDLFPLGWPRGILLYGPPGCGKTMIAAAVANEIDSIFMQLDAASVMSKWLGEAEKNVANVFKMAREESKKQNKPAIIFIDQLDALLGVYSTEVGGEARVRNQFLKEMDGLLDKSENYKVYVIGATNKPWRLDEAFLRRFQKRIYVPLPDYEQRLSLFKYYTSKIKLDTEVSLEELAKLTEGYTASDIRDIVQAAHIKVVKEMFKNNLGEPRTITLQDFKDILKVRMPSVNPELIKAYEAWTEKFKAL
modifications: selenomethionine-substituted
B2: S. cerevisiae Vta1p (natural protein, UniProt Q06263 1-330, looked up)
chain: MASNAARVVATAKDFDKVGLGIIGYYLQLYAVELILSEEDRSQEMTALATELLDTIEAFKKEIGGESEAEDSDKSLHVMNTLIHDQEKAKIYMLNFTMSLYNEKLKQLKDGPWDVMLKRSLWCCIDLFSCILHLWKENISETSTNSLQKRIKYCKIYLSKLAKGEIGSSDEKTLDYADFADDSEEIKDEDVDHQTSDLENNNNDKVEGLAPKDQTTSYEPVDEVPEFIDDADSVNEEEQTVDKNEDAITKDEQQVVKKEVDLTRPSAPSEPAAAEHKSYTKDELTKIMDRASKIEQIQKLAKYAISALNYEDLPTAKDELTKALDLLNSI
B3: Sulfolobus solfataricus Vps4 (SsoVps4, wild type) (enzyme, UniProt Q97ZJ7 1-372, looked up)
chain: MSAQVMLEDMARKYAILAVKADKEGKVEDAITYYKKAIEVLSQIIVLYPESVARTAYEQMINEYKKRISYLEKVLPASSDGSGDNTSPPEEVVITEKPKVSFKDIVGLDDVKEALREAIIYPTKRPDLFPLGWPRGILLYGPPGCGKTMIAAAVANEIDSIFMQLDAASVMSKWLGEAEKNVANVFKMAREESKKQNKPAIIFIDELDALLGVYSTEVGGEARVRNQFLKEMDGLLDKSENYKVYVIGATNKPWRLDEAFLRRFQKRIYVPLPDYEQRLSLFKYYTSKIKLDTEVSLEELAKLTEGYTASDIRDIVQAAHIKVVKEMFKNNLGEPRTITLQDFKDILKVRMPSVNPELIKAYEAWTEKFKAL
B4: SsoVps4(F328A) (enzyme, Sulfolobus solfataricus, UniProt Q97ZJ7 1-372, looked up)
chain: B3 chain with F328A
B5: SsoVps4(R262A) (enzyme, Sulfolobus solfataricus, UniProt Q97ZJ7 1-372, looked up)
chain: B3 chain with R262A
B6: SsoVps4(R263A) (enzyme, Sulfolobus solfataricus, UniProt Q97ZJ7 1-372, looked up)
chain: B3 chain with R263A
B7: SsoVps4(E206Q) (enzyme, Sulfolobus solfataricus, UniProt Q97ZJ7 1-372, looked up)
chain: B3 chain with E206Q
B8: S. cerevisiae Vps4p(E233Q) (enzyme, UniProt P52917 1-437, looked up)
chain: T1 sequence (looked up) with E233Q

What was measured:
crystal structure = biological target: the molecule itself; experiment: crystal structure
[1] = biological target: T1, S. cerevisiae Vps4p (wild type); experiment: SEC
[2] = biological target: B8; experiment: SEC
SEC [3] = biological target: the molecule itself; experiment: SEC
SEC [4] = biological target: the molecule itself; experiment: SEC; remark: listed apart in the source
AUC = biological target: the molecule itself; experiment: AUC
SEC [5] = biological target: the molecule itself; experiment: SEC; remark: listed apart in the source
SEC [6] = biological target: the molecule itself; experiment: SEC; remark: listed apart in the source
SEC [7] = biological target: the molecule itself; experiment: SEC; remark: listed apart in the source

B1
binding result (crystal structure): binds

B2
binding result [1]: binds | binding result [2]: binds

B3
stoichiometry N (SEC [3]): 12 | stoichiometry N (SEC [4]): ~6 | stoichiometry N (AUC): 6

B4
stoichiometry N (SEC [4]): 2

B5
binding result (SEC [5]): binds

B6
binding result (SEC [5]): binds

B7
stoichiometry N (SEC [3]): 12 | stoichiometry N (SEC [4]): ~6

B8
stoichiometry N (SEC [6]): 12 | stoichiometry N (SEC [7]): 6

— article PMC3919030 (Journal of molecular biology, 2013)
